Results on one substance are retold here after patent publication US20090053227A1.

This experiment deals with Kv3.2a (potassium channel Kv3.2a, KCNC2 transcript variant 1) (human) (UniProt Q96PR1). The experiment can be described thus: flow cytometry on unpermeabilized Kv3.2a-CHO 1A5 cells.
Sequence of UniProt Q96PR1 (Q96PR1 other isoform, or with tags, fused parts or gaps mutant): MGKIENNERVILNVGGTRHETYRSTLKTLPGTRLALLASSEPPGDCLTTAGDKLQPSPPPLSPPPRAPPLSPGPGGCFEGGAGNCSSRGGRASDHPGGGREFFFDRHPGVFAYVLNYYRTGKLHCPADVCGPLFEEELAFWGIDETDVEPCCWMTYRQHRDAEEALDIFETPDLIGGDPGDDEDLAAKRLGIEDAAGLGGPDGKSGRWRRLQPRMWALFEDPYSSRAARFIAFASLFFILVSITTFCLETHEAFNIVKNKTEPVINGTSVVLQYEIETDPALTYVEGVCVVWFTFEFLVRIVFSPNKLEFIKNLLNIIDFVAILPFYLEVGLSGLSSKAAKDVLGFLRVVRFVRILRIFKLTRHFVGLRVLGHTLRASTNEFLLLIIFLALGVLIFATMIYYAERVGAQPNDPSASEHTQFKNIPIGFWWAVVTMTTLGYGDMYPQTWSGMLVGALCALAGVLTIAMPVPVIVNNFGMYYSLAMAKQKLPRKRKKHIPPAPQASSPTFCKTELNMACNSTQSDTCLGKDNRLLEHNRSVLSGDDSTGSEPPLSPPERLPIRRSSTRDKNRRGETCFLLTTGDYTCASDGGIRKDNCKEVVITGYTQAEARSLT

For the substance Neg control, the percentage shift into gate worked out at 0.01%.
